Results as given in IntAct's records for PubMed 15983381.

B1: Parkinson disease protein 7 (Homo sapiens), Q99497 (parent)
chain: MASKRALVILAKGAEEMETVIPVDVMRRAGIKVTVAGLAGKDPVQCSRDVVICPDASLEDAKKEGPYDVVVLPGGNLGAQNLSESAAVKEILKEQENRKGLIAAICAGPTALLAHEIGFGSKVTTHPLAKDKMMNGGHYTYSENRVEKDGLILTSRGPGTSFEFALAIVEALNGKEVAAQVKAPLVLKD

Variants of: B1
Conditions: with daxx_human DAXX

effect of a mutation on the interaction | Variant
decreasing interaction | MASKRALVILAKGAEEMETVIPVDVMRRAGIKVTVAGLAGKDPVQCSRDVVICPDASLEDAKKEGPYDVVVLPGGNLGAQNLSESAAVKEILKEQENRKGLIAAICAGPTALLAHEIGFGSKVTTHPLAKDKMMNGGHYTYSENRVEKDGLILTSRGPGTSFEFAPAIVEALNGKEVAAQVKAPLVLKD [L166P]
